The chains are these.
B1: Aat01-Amino acid transporter 01 promoter/5′UTR: putative nitrogen-regulated promoter/5′UTR, SEQ ID NO: 62 (nucleic acid, listed as Prototheca moriformis)
DNA: CGAAGGGGTCTGCATCGATTCGCGCGGTCTGGAGGCCAGCGTGACTGCTCGCGAAAATGCTCTGCCGTGTCGGGCTCTGGCTGGGGCGGCCAGAGATCTCACCGTGCCACACGCAACTGCCGCACTCTGTGCCCGCCACCTGGCGCGCACATGCGACCTCTTCCCCGTCATACCCTCTCCTCATGTGATCTTTCCACACGAGTGACGCAGGTGCGCGGAGTGGAGGGAATCAGGACGTTTTCAAGGTACCTGCTCGAGCCGTACCAACAGCTGCCGCCCGGCAAGGAAGAGATCGAGGCAGAGATTGCCCGGCTGGAGGCCCGGATAACGGAGCTCAAGAGCAAGCTGTCCGAGTGAGACCGCCCAGGTGCACGTGTCGACTCGCTATGACATGTACTCGACACAACATGAGGAATTCATCGAATTTGTAGGAAGCGGGCATTGGTACGGGAGTGGGAAAGCGAAAAAACCTCCCTCCGGCAGTGCCATCTGCCGGAGTCGAACGTTGATAGGGTTCTCGTGACAGGGTGTGACCTCTCAGCCTTGCATCAATTAAACGCTATAGACATTATCAGTAACCGTGAATCCCGCATTGGATGCCACCCGCGCGACCATTGGGGACCTGCATTACAGATCTAGGTGAGATGACAGCGAGGCAACTTCGGCCCGCGGCCCAGCTTGCGGCGCACCAATATTGGTCACGGGAAGCCACACACCGACCATAAATGAATACTTGTAAGCTATGTCAACCGATCAATGGCGTCGAAAGTGTGCCACGAGGATCCATCTGGCGGGGCGGCGTGGCGCACAAGCGCAGTCGCAATTTCTCGGACCCATCTGACCTAGGCCCAGCGCCGCGGGAGAAATCCCCGGCGGGTCCTCCACGCAGTAACCCTAATGAGTATCGAGCGCCGACCATTTACACCATCGCCCCCGAAATCCTTCCGACATTATTATTATCTTTTAGATCTTGGAACAGACTCTGCCAACC
B2: Amt03-Ammonium transporter 03 promoter/5′UTR: putative nitrogen-regulated promoter/5′UTR, SEQ ID NO: 60 (nucleic acid, listed as Prototheca moriformis)
DNA: GGCCGACAGGACGCGCGTCAAAGGTGCTGGGCGTGTATGCCCTGGTCGGCAGGTCGTTGCTGTTGCTGCGCTCGTGGTTCCGCAACCCTGATTTTGGCGTCTTATTCTGGCGTGGCAAGCGCTGACGCCCGCGAGCCGGGCCGGCGGCGATGCGGTGTCTCACGGCTGCCGAGCTCCAAGGGAGGCAAGAGCGCCCGGATCAGCTGAAGGGCTTTACACGCAAGGTACAGCCGCTCCTGCAAGGCTGCGTGGTGGACTTGAACCTGTAGGTCCTCTGCTGAAGTTCCTCCACTACCTCACCAGGCCCAGCAGACCAAAGCACAGGCTTTTCAGGTCCGTGTCATCCACTCTAAAACACTCGACTACGACCTACTGATGGCCCTAGATTCTTCATCAACAATGCCTGAGACACTTGCTCAGAATTGAAACTCCCTGAAGGGACCACCAGAGGCCCTGAGTTGTTCCTTCCCCCCGTGGCGAGCTGCCAGCCAGGCTGTACCTGTGATCGAGGCTGGCGGGAAAATAGGCTTCGTGTGCTCAGGTCATGGGAGGTGCAGGACAGCTCATGAAACGCCAACAATCGCACAATTCATGTCAAGCTAATCAGCTATTTCCTCTTCACGAGCTGTAATTGTCCCAAAATTCTGGTCTACCGGGGGTGATCCTTCGTGTACGGGCCCTTCCCTCAACCCTAGGTATGCGCGCATGCGGTCGCCGCGCAACTCGCGCGAGGGCCGAGGGTTTGGGACGGGCCGTCCCGAAATGCAGTTGCACCCGGATGCGCGGCGCCTTTCTTGCGATAATTTATGCAATGGACTGCTCTGCAAATTTCTGGGTCTGTCGCCAACCCTAGGATCAGCGGCGTAGGATTTCGTAATCATTCGTCCTGATGGGGAGCTACCGACTACCCTAATATCAGCCCGGCTGCCTGACGCCAGCGTCCACTTTTGCGTACACATTCCATTCGTGCCCAAGACATTTCATTGTGGTGCGAAGCGTCCCCAGTTACGCTCACCTGTTTCCCGACCTCCTTACTGTTCTGTCGACAGAGCGGGCCCACAGGCCGGTCGCAGCC
B3: Flap Flagellar-associated protein promoter/5′UTR: putative nitrogen-regulated promoter/5′UTR, SEQ ID NO: 57 (nucleic acid, listed as Prototheca moriformis)
DNA: CAACGACAACCAGCAGGCAACTCGGTCAGCGACCCAACACGCGAGTCAAATTGTTGCGTGTTCTTGCCTTGTCTATTTACTGTGATAGCAAGACTGTCGGTCAGTCAATACCGCGGTGCGCACGTCGGGGTGCCAAGCCTAGCAGAGCACGGGACGGCTGGTGCTGTGCGCCAGCTCAGCTCGCTTCGCGACCAATTGTAGGACCGGCAAAGTCACCAAAACATGCCAGCGGTGCGATTCAATTGGTCATGAGCTCTACAAAATTGTTTTGTGCGTCGCGCAGGTATCCAACGGCGCGGCAGAGAAAGTTTGACAGCTCTCGATTTCATCTCGGAAAAATGGGGAGAATTTATGACACACAAGTGCGCAGGCGGCCCAGGCGGCCAGCATATTCTGGCGTGACCTGGGCCGCCCACAAAATGCTTGGATGCACTCTAAAATAATTATATTTGCCATGAACAAGGGAAGAGTTACCGCACCCAGCCCTAGACTTGGGCGCCCGAGCAAGGTTACGTCAAGCCACCTTCGCCCATCGCCCAACTCCGTATTCCCCGACAGCCGCACGTGGCCCTCGCCGGAATGAACCCTGAATCGGCATCACGCCACGCGTTCGCCAATCGTTCCGCTCTCTGGCTTCATCGGCCTGCGCCTTCACGTCGTGGTCACGACAGTGCATTCATACTTCCATTTGCACCTCGGCACACACTTTTACGCATCGCCTACCCTTGCTGCGGCAGTCTAGGGTCACTTTGCAGCCATGGGACAGTGCTACACCACCGTCGGTGCGCAAAGCTATTTCAAGTGAACCGTGGGCGGAAAAAAGGAATGTACACTGTCTCAACCGACTCCTACAATTGTTTACCATGCAGATCAGAGCTCGACGGCCATCATCGAGCAGGTGTGGGGCCTTGGTGGCGCGGCGCGGGGCCCCAGGGCGTCGCAGGCATTGATGGCACTCTGAGACTTTCGCACGCGCATGAGGGACCCCATCAAGAGAAGAGTGTGTCTTTATGTCCCCATTCATGATGATGTATCTTGTGATTGTCGCAGTTTGGCAAGTTTAACCGGATCGCCGCTCCAGGTGTGGCGTGGCGGATTTTTCTAGGGGTGCTTGAGCAGTCG
B4: SugT Sugar transporter promoter/5′UTR: putative nitrogen-regulated promoter/5′UTR, SEQ ID NO: 59 (nucleic acid, listed as Prototheca moriformis)
DNA: CCAGGCAGGCGGTAGGGTTGCCGATTGCTTGAGCGAATTGGAAGATATAATTTTTTGTGGTGTCCCTGGACGCTGTTTGTGGCGCTCCTTTTTGGAGAAGATTGCGTGGGGGAGCTTTCCATGTACCACGCTTCCTTCTGAAAGGATTCTGGCCGAGTCCTGATGAGCCCAAAGAAAACACCTGCCTTTCAGTGCTGGCACTCTGAAAACGTCAACAGATGATTATACATGTCACAAAAGGCAGCCGATTAGGAACGGGAGCTCTGGCCGTTCGTTTGGCTGCCTGGGCTGATTGAAGTGATCCACCCTGTTCGAATGAAGGCGGTCGAGTCGAATTATCGACCGGAGCTGTCGGGAAGGCGTCCGGGGCAGAGTGAGGTGCTGCGGCCTGGTTGTCGTTCAAAAAGACCCCGGTAGCCCAACAATCACGAACGAAAGGAATATAATTGCTTGCATACTATACATTCAGTTTCTATGTGGCGGGTAGACAAGTCTCATGGGCTTCTAAAGGCTGTCCCTTGAAGGCTACTTATAAAAACTTGCTGCGCCATGGCACGGATCGCGCTTGCGCAGGCTGCAACCCTGCGCGCAAGGTCAAATACACAGCAAAAGATACTAACAGAATTTCTAAAAACATTTAAATATTTGTTTCGACCAGCCAATTGTGGTCGTAGGCACGCAAAAGACTTTGTTTTGCGCCCACCGAGCATCCACGCTGGCAGTCAAGCCAGTCCGATGTGCATTGCGTGGCAGCATCGAGGAGCATCAAAAACCTCGTGCACGCTTTTCTGTCAATCATCATCAACCACTCCACCATGTATACCCGATGCATCGCGGTGCGCAGCGCGCCACGCGTCCCAGACCCGCCCAAAAACCCAGCAGCGGCGAAAGCAAATCTTCACTTGCCCGAAACCCCGAGCAGCGGCATTCACACGTGGGCGAAAACCCCACTTGCCCTAACAGGCGTATGTCTGCTGTCACGATGCCTGACAACGGTATTATAGATATACACTGATTAATGTTTGAGTGTGTGCGAGTCGCGAATCAGGAATGAATTGCTAGTAGGCACTCCGACCGGGCGGGGGCCGAGGGACCA
B5: SulfRed Sulfite reductase promoter/5′UTR: putative nitrogen-regulated promoter/5′UTR, SEQ ID NO: 58 (nucleic acid, listed as Prototheca moriformis)
DNA: GGCCCAGGGCCCTGCGGATGGCCCACACCAGATCTAGCCTCTCTTATGCCATGCCCGCCTCGCTGCCCGTCGTATCCCCCCGCCGATCCGCGCGTAGGGGACCGCGGCCTGACCCACGCCACGAAAGAGCTTTGCTCCTCAATTTCTCGCCAACAGAACCGTATCAAACGCTCAACGCCTATCCCGAACAATCCGTATTCACACCAAATCGAGTATACCGGACTGGTTTGCCTAGTCTTGAAGGAAATGATCCCGTCCATGCTCGGAAGGGGGAGCGGGCGGAGGATCCTACTCATCTCTGAAATGGGATTGGTCCGAAGATGGGTTGGGCAAGCACGTGCCAAACCCCAGCGAGTTGCTGACGAGCAGGCTCATCCAATCCCCCGGCGAATCCTCCCTCACGCCCCGCATGCATACAAGTCCCTCCCACACGCCCCCTCCCATCCATTTTCGCCTGGTCCGAACGCGAGCGGCGTCGAGGCGGACCACTTGCTCCGCAGCGCCGTCTGGGTCTCCACCCCACAGCGGCTTTGCTGCCAGAGGCACCCCCCTTGCCCCACCTCCTCTTGCAGCC

One data set concerns Prototheca moriformis (UTEX 1435). In words: Steady state thioesterase mRNA level by real-time RT-PCR (promoter testing, normalized to cd189). To be noted: low nitrogen medium.
B1: the “steady state C. camphora thioesterase mRNA level relative to control (C. reinhardtii beta tubulin promoter)” value is reported as “up to four”.

Another data set shares this test system. In words: cDNA abundance by real-time RT-PCR under nitrogen depletion. Type of data set: cell-based. To be noted: after 24 hours of culture in low nitrogen medium. Here is the method:
A cDNA library was generated from Prototheca moriformis (UTEX 1435) using standard techniques. The Prototheca moriformis cells were grown for 48 hours under nitrogen replete conditions. […] After about 24 hours in culture, the nitrogen supply in the media was completely depleted. The collected samples were immediately frozen using dry ice and isopropanol. Total RNA was subsequently isolated from the frozen cell pellet samples and a portion from each sample was held in reserve for RT-PCR studies. The rest of the total RNA harvested from the samples was subjected to polyA selection. Equimolar amounts of polyA selected RNA from each condition was then pooled and used to generate a cDNA library in vector pcDNA 3.0 (Invitrogen). Roughly 1200 clones were randomly picked from the resulting pooled cDNA library and subjected to sequencing on both strands. Approximately 68 different cDNAs were selected from among these 1200 sequences and used to design cDNA-specific primers for use in real-time RT-PCR studies. RNA isolated from the cell pellet samples that were held in reserve was used as substrate in the real time RT-PCR studies using the cDNA-specific primer sets generated above. This reserved RNA was converted into cDNA and used as substrate for RT-PCR for each of the 68 gene specific primer sets. […] As discussed in the specification, nitrogen depletion/limitation is a known inducer of lipogenesis in oleaginous microorganisms. Fold increase refers to the fold increase in cDNA abundance after 24 hours of culture in low nitrogen medium.
For B2, the “Fold increased (cDNA abundance)” value is 10.1. The same measure, in the same setting: to B3 belongs 4.92. Regarding B4, the “Fold increased (cDNA abundance)” value was determined as 17.35. The same measure, in the same setting: to B1 belongs 6.21; to B5, 10.91.

Values taken from patent US10100341B2, “Tailored oils produced from recombinant oleaginous microorganisms” (Corbion Biotech, Inc., priority 2011, dated 2018).
